This is an account of results in PMC9482650, “Quantitative fragmentomics allow affinity mapping of interactomes” (Nature Communications, 2022).

T1: PDZD2_3, O15018
T1 sequence (O15018 581-682, limits assumed, looked up): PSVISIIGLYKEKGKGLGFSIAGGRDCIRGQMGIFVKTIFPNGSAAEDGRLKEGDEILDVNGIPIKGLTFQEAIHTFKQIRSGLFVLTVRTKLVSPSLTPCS

T2: PARD6G, Q9BYG4
T2 sequence (Q9BYG4 153-261, limits assumed, looked up): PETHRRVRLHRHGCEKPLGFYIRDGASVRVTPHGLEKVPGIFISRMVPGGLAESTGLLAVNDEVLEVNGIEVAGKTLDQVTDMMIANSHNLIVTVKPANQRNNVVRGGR

T3: PDZRN3_2, Q9UPQ7
T3 sequence (Q9UPQ7 414-513, limits assumed, looked up): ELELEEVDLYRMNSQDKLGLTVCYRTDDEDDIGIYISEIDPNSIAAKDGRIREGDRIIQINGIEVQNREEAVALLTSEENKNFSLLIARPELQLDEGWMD

T4: PDZD11, Q5EBL8
T4 sequence (Q5EBL8 42-139, limits assumed, looked up): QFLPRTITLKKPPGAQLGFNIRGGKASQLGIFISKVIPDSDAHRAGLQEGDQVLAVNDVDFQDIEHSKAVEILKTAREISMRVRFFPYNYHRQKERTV

T5: PDZD2_6, O15018
T5 sequence (O15018 2745-2839, limits assumed, looked up): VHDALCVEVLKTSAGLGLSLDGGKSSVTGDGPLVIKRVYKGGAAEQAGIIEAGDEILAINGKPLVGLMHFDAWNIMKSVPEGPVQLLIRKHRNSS

T6: MPDZ_13, O75970
T6 sequence (O75970 1982-2070, limits assumed, looked up): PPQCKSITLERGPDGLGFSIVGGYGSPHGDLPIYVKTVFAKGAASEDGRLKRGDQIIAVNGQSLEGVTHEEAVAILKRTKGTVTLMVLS

T7: PARD6B, Q9BYG5
T7 sequence (Q9BYG5 152-260, limits assumed, looked up): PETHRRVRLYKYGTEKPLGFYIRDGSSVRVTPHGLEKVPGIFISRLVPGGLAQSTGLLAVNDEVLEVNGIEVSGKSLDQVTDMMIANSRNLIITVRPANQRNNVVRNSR

T8: SHROOM4, Q9ULL8
T8 sequence (Q9ULL8 5-102, limits assumed, looked up): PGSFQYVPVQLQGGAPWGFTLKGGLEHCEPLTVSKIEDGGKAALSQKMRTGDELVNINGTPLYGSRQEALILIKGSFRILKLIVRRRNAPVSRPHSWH

T9: PTPN13_5, Q12923
T9 sequence (Q12923 1877-1975, limits assumed, looked up): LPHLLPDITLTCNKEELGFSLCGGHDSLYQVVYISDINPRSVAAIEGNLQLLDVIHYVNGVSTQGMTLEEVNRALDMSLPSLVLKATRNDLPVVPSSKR

T10: TJP3_2, O95049
T10 sequence (O95049 190-282, limits assumed, looked up): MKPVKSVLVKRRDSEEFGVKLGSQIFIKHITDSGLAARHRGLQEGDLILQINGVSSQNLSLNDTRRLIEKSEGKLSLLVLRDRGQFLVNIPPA

T11: GIPC1, O14908
T11 sequence (O14908 128-223, limits assumed, looked up): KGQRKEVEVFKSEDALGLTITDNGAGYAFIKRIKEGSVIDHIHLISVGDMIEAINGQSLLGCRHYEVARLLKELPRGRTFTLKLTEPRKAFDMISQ

T12: NHERF1_1, O14745
T12 sequence (O14745 9-104, limits assumed, looked up): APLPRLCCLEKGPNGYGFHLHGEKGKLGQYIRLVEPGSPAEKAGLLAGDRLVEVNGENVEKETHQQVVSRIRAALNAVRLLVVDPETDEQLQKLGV

T13: SYNPO2L, Q9H987
T13 sequence (Q9H987 1-98, limits assumed, looked up): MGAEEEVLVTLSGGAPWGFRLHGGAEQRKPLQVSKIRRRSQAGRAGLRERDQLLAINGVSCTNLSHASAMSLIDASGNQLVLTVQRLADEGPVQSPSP

B1: SLC15A5, A6NIM6 (peptide)
chain: SSIDLWETAL
B2: NET1, Q7Z628 (peptide)
chain: SGGKRKETLV

NHERF2_1, Q15599, sequence (Q15599 9-91): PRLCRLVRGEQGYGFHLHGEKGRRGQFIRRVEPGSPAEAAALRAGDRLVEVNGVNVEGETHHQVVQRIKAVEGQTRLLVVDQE
MAGIX, Q9H6Y5, sequence (Q9H6Y5 118-211): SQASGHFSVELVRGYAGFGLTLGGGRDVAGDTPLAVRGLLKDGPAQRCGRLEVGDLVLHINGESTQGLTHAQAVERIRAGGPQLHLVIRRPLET
CARD14, Q9BXL6, sequence (Q9BXL6 558-663): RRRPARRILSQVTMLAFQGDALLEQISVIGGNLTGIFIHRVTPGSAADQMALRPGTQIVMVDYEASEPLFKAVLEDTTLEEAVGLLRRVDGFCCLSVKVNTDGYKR

The target in the first experiment is NHERF4_3, Q86UT5. Description: holdup assay. Further details: key: below the threshold = too weak to quantify, mostly under pKd 3.1 to 4. Conditions: plain residues with an end cap or a label only (N-terminal biotin on a linker: ttds).
NHERF4_3, Q86UT5, sequence (Q86UT5 325-412): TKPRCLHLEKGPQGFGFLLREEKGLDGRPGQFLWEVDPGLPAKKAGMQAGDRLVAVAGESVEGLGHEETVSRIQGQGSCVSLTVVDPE
B1: the pKd result is reported as “below the threshold”.

Consider B2, for which the pKd result was “below the threshold”.

A further experiment concerns the target T1, PDZD2_3, O15018. The experiment can be described thus: holdup assay. On the set-up: key: below the threshold = too weak to quantify, mostly under pKd 3.1 to 4. Particulars: plain residues with an end cap or a label only (N-terminal biotin on a linker: ttds).
Molecule B1 gave a pKd of 5.1.

With B2, the negative logarithm of the Kd (pKd) result was “below the threshold”.

The target of a further experiment is MAGI1_4, Q96QZ7. Description: holdup assay. Conditions: plain residues with an end cap or a label only (N-terminal biotin on a linker: ttds). Further details: key: below the threshold = too weak to quantify, mostly under pKd 3.1 to 4.
MAGI1_4, Q96QZ7, sequence (Q96QZ7 other isoform, or with tags, fused parts or gaps): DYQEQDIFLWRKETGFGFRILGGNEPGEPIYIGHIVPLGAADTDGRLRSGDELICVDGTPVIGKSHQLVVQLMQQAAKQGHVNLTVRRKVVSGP
For the molecule B1, the pKd result was “below the threshold”.

Another experiment has as its target T2, PARD6G, Q9BYG4. Description: holdup assay. Conditions: plain residues with an end cap or a label only (N-terminal biotin on a linker: ttds). On the set-up: key: below the threshold = too weak to quantify, mostly under pKd 3.1 to 4.
In the case of B1, the pKd entry was “below the threshold”.

Take B2: the pKd entry was “below the threshold”.

The target of another experiment is T3, PDZRN3_2, Q9UPQ7. Description: holdup assay. On the set-up: key: below the threshold = too weak to quantify, mostly under pKd 3.1 to 4. Conditions: plain residues with an end cap or a label only (N-terminal biotin on a linker: ttds).
B1: the negative-log Kd (pKd) entry is recorded as “below the threshold”.

B2: the pKd result is “below the threshold”.

The target in another experiment is IL16_2, Q14005. Description: holdup assay. Further details: key: below the threshold = too weak to quantify, mostly under pKd 3.1 to 4. Particulars: plain residues with an end cap or a label only (N-terminal biotin on a linker: ttds).
IL16_2, Q14005, sequence (Q14005 350-450): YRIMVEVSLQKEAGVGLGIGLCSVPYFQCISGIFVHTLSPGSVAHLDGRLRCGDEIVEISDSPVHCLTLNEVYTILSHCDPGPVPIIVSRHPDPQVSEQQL
As for B1, the pKd result is recorded as “below the threshold”.

Take B2: the negative logarithm of the Kd (pKd) entry was “below the threshold”.

The next experiment concerns the target CARD14, Q9BXL6. The experiment can be described thus: holdup assay. Further details: key: below the threshold = too weak to quantify, mostly under pKd 3.1 to 4. Conditions: plain residues with an end cap or a label only (N-terminal biotin on a linker: ttds).
On to B1, for which the pKd entry is recorded as “below the threshold”.

The target of another experiment is T4, PDZD11, Q5EBL8. Description: holdup assay. Further details: key: below the threshold = too weak to quantify, mostly under pKd 3.1 to 4. Particulars: plain residues with an end cap or a label only (N-terminal biotin on a linker: ttds).
Regarding B1, the pKd result was “below the threshold”.

As to B2, the negative-log Kd (pKd) entry is on record as “below the threshold”.

The next experiment concerns the target T5, PDZD2_6, O15018. The experiment can be described thus: holdup assay. Further details: key: below the threshold = too weak to quantify, mostly under pKd 3.1 to 4. Particulars: plain residues with an end cap or a label only (N-terminal biotin on a linker: ttds).
As for B1, the pKd entry is given as “below the threshold”.

Regarding B2, the negative-log Kd (pKd) result was “below the threshold”.

For a further experiment, the target named is T6, MPDZ_13, O75970. The experiment can be described thus: holdup assay. On the set-up: key: below the threshold = too weak to quantify, mostly under pKd 3.1 to 4. Conditions: plain residues with an end cap or a label only (N-terminal biotin on a linker: ttds).
As for B1, the pKd result is “below the threshold”.

On to B2, for which the pKd turned out to be 3.75.

Another experiment addresses NHERF2_1, Q15599. Description: holdup assay. Conditions: plain residues with an end cap or a label only (N-terminal biotin on a linker: ttds). Further details: key: below the threshold = too weak to quantify, mostly under pKd 3.1 to 4.
In turn, B1 returned a pKd of 4.68.

B2: the negative-log Kd (pKd) entry is listed as “below the threshold”.

For another experiment, the target named is T7, PARD6B, Q9BYG5. The experiment can be described thus: holdup assay. Further details: key: below the threshold = too weak to quantify, mostly under pKd 3.1 to 4. Particulars: plain residues with an end cap or a label only (N-terminal biotin on a linker: ttds).
As for B1, the pKd result is on record as “below the threshold”.

Take B2: the pKd result is “below the threshold”.

The target of the next experiment is MAST3, O60307. The experiment can be described thus: holdup assay. Conditions: plain residues with an end cap or a label only (N-terminal biotin on a linker: ttds). On the set-up: key: below the threshold = too weak to quantify, mostly under pKd 3.1 to 4.
MAST3, O60307, sequence (O60307 945-1048): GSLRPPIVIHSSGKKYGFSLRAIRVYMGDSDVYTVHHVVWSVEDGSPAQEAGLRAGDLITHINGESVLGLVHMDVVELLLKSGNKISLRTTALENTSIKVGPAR
With B1, the pKd is 4.91.

Take B2: the negative logarithm of the Kd (pKd) entry was “below the threshold”.

The target of another experiment is Inadl_7, Q8NI35. The experiment can be described thus: holdup assay. On the set-up: key: below the threshold = too weak to quantify, mostly under pKd 3.1 to 4. Conditions: plain residues with an end cap or a label only (N-terminal biotin on a linker: ttds).
Inadl_7, Q8NI35, sequence (Q8NI35 1219-1332): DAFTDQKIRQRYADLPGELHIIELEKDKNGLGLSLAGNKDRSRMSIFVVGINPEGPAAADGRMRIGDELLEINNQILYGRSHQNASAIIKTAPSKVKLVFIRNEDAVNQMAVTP
Consider B1, for which the pKd entry is listed as “below the threshold”.

B2: the pKd result is “below the threshold”.

The next experiment concerns the target T8, SHROOM4, Q9ULL8. The experiment can be described thus: holdup assay. Conditions: plain residues with an end cap or a label only (N-terminal biotin on a linker: ttds). Further details: key: below the threshold = too weak to quantify, mostly under pKd 3.1 to 4.
As for B1, the pKd result is listed as “below the threshold”.

B2: the negative logarithm of the Kd (pKd) result is listed as “below the threshold”.

A further experiment concerns the target MAGIX, Q9H6Y5. The experiment can be described thus: holdup assay. Particulars: plain residues with an end cap or a label only (N-terminal biotin on a linker: ttds). On the set-up: key: below the threshold = too weak to quantify, mostly under pKd 3.1 to 4.
Turning to B1, the negative-log Kd (pKd) result is recorded as “below the threshold”.

B2: the pKd result is reported as “below the threshold”.

For a further experiment, the target named is T9, PTPN13_5, Q12923. Description: holdup assay. Particulars: plain residues with an end cap or a label only (N-terminal biotin on a linker: ttds). On the set-up: key: below the threshold = too weak to quantify, mostly under pKd 3.1 to 4.
B1 gave a pKd of 4.86.

Take B2: the pKd result is “below the threshold”.

The target of another experiment is T10, TJP3_2, O95049. The experiment can be described thus: holdup assay. On the set-up: key: below the threshold = too weak to quantify, mostly under pKd 3.1 to 4. Particulars: plain residues with an end cap or a label only (N-terminal biotin on a linker: ttds).
With B1, the negative-log Kd (pKd) result is “below the threshold”.

The target in a further experiment is T11, GIPC1, O14908. Description: holdup assay. On the set-up: key: below the threshold = too weak to quantify, mostly under pKd 3.1 to 4. Conditions: plain residues with an end cap or a label only (N-terminal biotin on a linker: ttds).
As for B1, the negative logarithm of the Kd (pKd) result is given as “below the threshold”.

Turning to B2, the pKd stood at 4.28.

For another experiment, the target named is T12, NHERF1_1, O14745. Description: holdup assay. Further details: key: below the threshold = too weak to quantify, mostly under pKd 3.1 to 4. Conditions: plain residues with an end cap or a label only (N-terminal biotin on a linker: ttds).
On to B1, for which the pKd result was “below the threshold”.

On to B2, for which the pKd result is listed as “below the threshold”.

Another experiment deals with T13, SYNPO2L, Q9H987. The experiment can be described thus: holdup assay. Particulars: plain residues with an end cap or a label only (N-terminal biotin on a linker: ttds). Further details: key: below the threshold = too weak to quantify, mostly under pKd 3.1 to 4.
Regarding B1, the pKd result is “below the threshold”.

With B2, the pKd entry is on record as “below the threshold”.

The target in a further experiment is RIMS2, Q9UQ26. The experiment can be described thus: holdup assay. Further details: key: below the threshold = too weak to quantify, mostly under pKd 3.1 to 4. Particulars: plain residues with an end cap or a label only (N-terminal biotin on a linker: ttds).
RIMS2, Q9UQ26, sequence (Q9UQ26 637-758): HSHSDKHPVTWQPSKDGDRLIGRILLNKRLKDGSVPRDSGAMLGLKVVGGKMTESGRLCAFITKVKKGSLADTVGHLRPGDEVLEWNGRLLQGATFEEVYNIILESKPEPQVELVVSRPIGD
As to B1, the pKd entry is given as “below the threshold”.

For B2, the negative-log Kd (pKd) result is “below the threshold”.

Another experiment deals with PREX1_1, Q8TCU6. Description: holdup assay. On the set-up: key: below the threshold = too weak to quantify, mostly under pKd 3.1 to 4. Particulars: plain residues with an end cap or a label only (N-terminal biotin on a linker: ttds).
PREX1_1, Q8TCU6, sequence (Q8TCU6 608-718): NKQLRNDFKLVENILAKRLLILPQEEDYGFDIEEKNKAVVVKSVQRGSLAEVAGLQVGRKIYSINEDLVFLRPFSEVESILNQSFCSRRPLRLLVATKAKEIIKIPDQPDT
Turning to B1, the pKd result was “below the threshold”.

As for B2, the negative-log Kd (pKd) entry is recorded as “below the threshold”.

A further experiment deals with MAGI3_4, Q5TCQ9. Description: holdup assay. Further details: key: below the threshold = too weak to quantify, mostly under pKd 3.1 to 4. Conditions: plain residues with an end cap or a label only (N-terminal biotin on a linker: ttds).
MAGI3_4, Q5TCQ9, sequence (Q5TCQ9 716-815): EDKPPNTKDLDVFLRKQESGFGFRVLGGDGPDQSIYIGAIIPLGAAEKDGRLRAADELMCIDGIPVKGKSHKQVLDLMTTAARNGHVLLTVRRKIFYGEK
Take B1: the pKd result is “below the threshold”.

In the case of B2, the pKd result was “below the threshold”.

The target of another experiment is GIPC3, Q8TF64. Description: holdup assay. On the set-up: key: below the threshold = too weak to quantify, mostly under pKd 3.1 to 4. Conditions: plain residues with an end cap or a label only (N-terminal biotin on a linker: ttds).
GIPC3, Q8TF64, sequence (Q8TF64 107-202): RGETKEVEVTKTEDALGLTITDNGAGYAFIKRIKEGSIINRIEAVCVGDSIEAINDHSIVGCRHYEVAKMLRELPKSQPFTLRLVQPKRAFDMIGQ
B1: the pKd entry was “below the threshold”.

The term pKd denotes the negative decadic logarithm of the Kd, by convention in mol/L.
